Patent US20260275312, “CRISPR NUCLEASE POLYPEPTIDES AND GENE EDITING SYSTEMS COMPRISING SUCH” (ARBOR BIOTECHNOLOGIES, INC., published 2026)

How the values were obtained:
[1] = target: T1, Nuclease W S925R/E715R/A65R (synthetic construct, S925R,E715R,A65R); assay: cell_activity; HEK293T; PAM AAA; conditions: tags: N-term SV40 NLS, XTEN linker + C-term nucleoplasmin NLS
T1 chain: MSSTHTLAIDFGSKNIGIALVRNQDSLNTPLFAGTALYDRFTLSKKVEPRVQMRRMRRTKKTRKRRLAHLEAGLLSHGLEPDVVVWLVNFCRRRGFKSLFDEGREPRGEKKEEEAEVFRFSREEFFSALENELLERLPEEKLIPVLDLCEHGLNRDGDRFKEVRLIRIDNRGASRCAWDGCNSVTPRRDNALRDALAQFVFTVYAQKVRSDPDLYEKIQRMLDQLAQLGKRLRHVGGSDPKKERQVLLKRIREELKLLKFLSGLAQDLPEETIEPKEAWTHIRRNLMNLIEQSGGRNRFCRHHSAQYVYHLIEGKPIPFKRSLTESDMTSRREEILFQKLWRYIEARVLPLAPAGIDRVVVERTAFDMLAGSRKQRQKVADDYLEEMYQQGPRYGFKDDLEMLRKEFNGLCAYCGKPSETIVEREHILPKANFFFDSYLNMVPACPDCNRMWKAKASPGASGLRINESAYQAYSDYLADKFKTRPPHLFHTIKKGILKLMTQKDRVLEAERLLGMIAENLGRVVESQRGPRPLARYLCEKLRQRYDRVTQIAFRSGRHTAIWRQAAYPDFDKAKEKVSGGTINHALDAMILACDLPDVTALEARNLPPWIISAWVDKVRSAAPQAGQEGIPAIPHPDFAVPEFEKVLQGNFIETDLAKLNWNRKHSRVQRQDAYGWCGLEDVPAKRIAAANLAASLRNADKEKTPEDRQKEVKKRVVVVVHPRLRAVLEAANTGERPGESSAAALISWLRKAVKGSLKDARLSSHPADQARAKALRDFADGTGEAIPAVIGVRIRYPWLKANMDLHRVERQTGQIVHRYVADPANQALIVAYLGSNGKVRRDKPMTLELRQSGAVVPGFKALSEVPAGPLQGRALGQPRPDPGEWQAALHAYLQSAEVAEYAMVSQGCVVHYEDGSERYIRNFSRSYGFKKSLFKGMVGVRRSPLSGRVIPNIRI
Procedure: (§1) Approximately 16 hours prior to transfection, 25,000 HEK293T cells in DMEM/10% FBS+Pen/Strep (D10 media) were plated into each well of a 96-well plate. On the day of transfection, the cells were 50-90% confluent. For each well to be transfected, a mixture of Lipofectamine 2000™ (ThermoFisher Scientific) and Opti-MEM™ (ThermoFisher Scientific) was prepared and incubated at room temperature for 5 minutes (Solution 1). After incubation, the Lipofectamine 2000™:Opti-MEM™ mixture was added to a separate mixture containing the CRISPR nuclease plasmid (NLS-tagged), RNA guide plasmid, and Opti-MEM™ (Solution 2). In the case of negative controls, the CRISPR nuclease plasmid was excluded. Solutions 1 and 2 were mixed by pipetting up and down, then incubated at room temperature for 25 minutes. Following incubation, the Solution 1 and 2 mixture was added dropwise to each well of a 96-well plate containing the cells. […]
Each Nuclease W variant was cloned as described in Example 2. […] For each target, indel ratios, referring to the percentage of NGS reads comprising indels, were calculated for the reference Nuclease W (SEQ ID NO: 1) and for each Nuclease W variant. The indel ratios shown in Table 5 were calculated as the average of two bioreplicates, each of which contained two technical replicates.

Nuclease W E715R = target: T2, Nuclease W E715R (synthetic construct, E715R); assay: cell_activity; HEK293T; PAM AAA; conditions: tags: N-term SV40 NLS, XTEN linker + C-term nucleoplasmin NLS
T2 chain: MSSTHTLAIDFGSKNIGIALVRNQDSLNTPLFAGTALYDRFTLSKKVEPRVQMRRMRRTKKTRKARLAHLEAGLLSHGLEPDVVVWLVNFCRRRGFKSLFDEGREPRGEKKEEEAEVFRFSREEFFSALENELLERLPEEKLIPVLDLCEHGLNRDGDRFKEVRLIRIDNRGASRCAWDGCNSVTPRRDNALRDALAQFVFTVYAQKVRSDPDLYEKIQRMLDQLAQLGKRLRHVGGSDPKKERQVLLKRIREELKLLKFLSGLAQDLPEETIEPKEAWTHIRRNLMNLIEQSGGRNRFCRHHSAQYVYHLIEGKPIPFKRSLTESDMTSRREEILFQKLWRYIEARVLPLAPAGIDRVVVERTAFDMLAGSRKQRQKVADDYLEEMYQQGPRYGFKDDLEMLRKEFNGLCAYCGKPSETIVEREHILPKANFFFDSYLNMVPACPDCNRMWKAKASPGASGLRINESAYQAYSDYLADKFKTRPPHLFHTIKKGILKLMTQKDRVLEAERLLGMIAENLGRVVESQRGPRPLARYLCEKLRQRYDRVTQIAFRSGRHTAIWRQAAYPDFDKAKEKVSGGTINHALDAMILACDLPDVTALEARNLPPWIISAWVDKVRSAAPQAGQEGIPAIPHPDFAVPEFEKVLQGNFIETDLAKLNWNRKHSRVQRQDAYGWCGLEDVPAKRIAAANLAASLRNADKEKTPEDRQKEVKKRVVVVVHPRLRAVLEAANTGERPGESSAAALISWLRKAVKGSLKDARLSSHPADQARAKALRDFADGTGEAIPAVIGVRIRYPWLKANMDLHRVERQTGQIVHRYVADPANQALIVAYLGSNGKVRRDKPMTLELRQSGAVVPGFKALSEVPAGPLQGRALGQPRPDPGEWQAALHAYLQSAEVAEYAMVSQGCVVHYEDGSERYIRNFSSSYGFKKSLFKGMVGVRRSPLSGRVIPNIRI
Procedure: as §1, with “cells. Approximately 72 hours post transfection, cells were trypsinized by adding TrypLE™ (Thermo Fisher Scientific) to the center of each well and incubating at 37° C. for approximately 5 minutes. D10 media was then added to each well and mixed to resuspend cells.” for “cells.”
Cells were transfected, and samples were prepared for NGS as described in Example 1. Indel ratios, referring to the percentage of NGS reads comprising indels, were calculated for the reference and for each variant. […]

B1: W EMX1-T5 RNA guide ; EMX1-T5 target (W) (ssRNA ; dsDNA)
RNA: UAAACUACAGUGGUGCCUGGGUUUCAGCUACCCUGAGUUUCUCAACUCCGUUGAGACUUCCUCAGGUUCAAGCUGAAAAGAGCAUCUGUCCGGAAGGACCACUCCGGGUUAGGGCAGACCCGGCUCUUGGGCUUCCUUGGUCUUUGACUCUGGAGGAAACCUUCCGGCGUGUCGCAAGACAAGAUGUGAGCCUG
DNA 1: TAAACTACAGTGGTGCCTGG
DNA 2: CCAGGCACCACTGTAGTTTA
For B1, the binding signal [1] was 4.84 fold indel vs reference and the “fold change in indel ratio vs reference” value (Nuclease W E715R) was 3.94 fold indel vs reference.
